Measured values published in publication PMC10374971, “In vivo and in vitro characterizations of melibiose permease (MelB) conformation-dependent nanobodies reveal sugar-binding mechanisms” (The Journal of Biological Chemistry, 2023).

Experiments:
[1] = molecular target: MelBSt (Salmonella enterica serovar Typhimurium) (UniProt P30878); details: cited from earlier work
[2] = molecular target: MelBSt/Nb733 complex, formed beforehand (MelBSt 50 μM with Nb733 75 μM, molar ratio 1:1.5) (Salmonella enterica serovar Typhimurium | Lama glama) (UniProt P30878); test: ITC; EIIA^Glc (450 μM) in the syringe, MelBSt (50 μM), free or complexed with Nb733 (75 μM), in the sample cell; 20 mM Tris-HCl pH 7.5, 100 mM NaCl, 0.01% DDM, 10% glycerol; 25 °C; one-site independent-binding model
Chain of MelBSt/Nb733 complex, formed beforehand (MelBSt 50 μM with Nb733 75 μM, molar ratio 1:1.5) (Salmonella enterica serovar Typhimurium | Lama glama) (P30878 whole entry, looked up, one chain of several): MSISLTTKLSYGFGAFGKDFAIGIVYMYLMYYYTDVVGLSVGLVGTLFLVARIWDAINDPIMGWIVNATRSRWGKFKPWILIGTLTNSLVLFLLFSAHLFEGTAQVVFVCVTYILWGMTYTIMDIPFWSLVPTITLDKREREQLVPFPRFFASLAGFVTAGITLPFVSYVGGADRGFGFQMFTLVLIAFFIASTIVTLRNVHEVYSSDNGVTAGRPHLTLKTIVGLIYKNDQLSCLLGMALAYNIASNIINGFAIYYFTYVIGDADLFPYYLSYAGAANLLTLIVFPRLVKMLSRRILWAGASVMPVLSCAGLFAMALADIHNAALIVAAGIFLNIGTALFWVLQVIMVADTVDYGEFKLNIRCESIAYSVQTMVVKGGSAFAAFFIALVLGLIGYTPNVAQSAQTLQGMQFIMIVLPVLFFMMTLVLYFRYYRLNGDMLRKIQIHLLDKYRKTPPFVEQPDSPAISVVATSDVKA

[3] = molecular target: T1, Salmonella enterica serovar Typhimurium melibiose permease (MelBSt), wild type (Salmonella enterica serovar Typhimurium, UniProt P30878 6-476); test: as above; details: both partners purified
T1 construct: melibiose permease MelB of Salmonella enterica serovar Typhimurium, wild type; Membrane protein in detergent (0.01% DDM) in the ITC; also called WT MelBSt; source: E. coli DW2, plasmid pK95 ΔAH/MelBSt/CHis10
T1 sequence (P30878 6-476): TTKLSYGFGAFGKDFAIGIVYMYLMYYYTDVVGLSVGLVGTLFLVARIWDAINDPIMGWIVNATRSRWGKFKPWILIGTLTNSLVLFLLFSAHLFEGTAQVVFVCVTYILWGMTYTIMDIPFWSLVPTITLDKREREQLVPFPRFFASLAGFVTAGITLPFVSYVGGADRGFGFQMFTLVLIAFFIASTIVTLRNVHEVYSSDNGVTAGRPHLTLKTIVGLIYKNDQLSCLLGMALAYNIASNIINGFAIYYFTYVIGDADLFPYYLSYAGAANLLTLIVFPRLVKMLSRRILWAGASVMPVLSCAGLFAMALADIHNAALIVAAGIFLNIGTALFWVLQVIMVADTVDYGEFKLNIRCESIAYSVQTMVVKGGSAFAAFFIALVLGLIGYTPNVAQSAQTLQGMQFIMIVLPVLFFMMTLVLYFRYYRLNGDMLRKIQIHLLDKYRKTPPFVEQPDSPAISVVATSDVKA

Chain of MelBSt (Salmonella enterica serovar Typhimurium) (P30878 whole entry): as the sequence (P30878 whole entry, looked up, one chain of several) above

## EIIAGlc (from UniProt P69783)
[1]
  Kd: 0.003 mM

## EIIA^Glc of the glucose-specific phosphoenolpyruvate/sugar phosphotransferase system, unphosphorylated (from UniProt P69783 1-169) (natural protein)
[2]
  Kd: 8.12 mM
  dH: -6.75 kcal/mol
  stoichiometry N: 0.76

B1: EIIA^Glc of the glucose-specific phosphoenolpyruvate/sugar phosphotransferase system, unphosphorylated (natural protein, UniProt P69783 1-169, looked up)
chain: MGLFDKLKSLVSDDKKDTGTIEIIAPLSGEIVNIEDVPDVVFAEKIVGDGIAIKPTGNKMVAPVDGTIGKIFETNHAFSIESDSGVELFVHFGIDTVELKGEGFKRIAEEGQRVKVGDTVIEFDLPLLEEKAKSTLTPVVISNMDEIKELIKLSGSVTVGETPVIRIKK
notes: regulatory enzyme EIIA^Glc of the glucose-specific phosphotransferase system, unphosphorylated; source: E. coli T7 Express, overexpressed, as described (24)
[3]
  Kd: 3.33 mM
  dH: -9.54 kcal/mol
  stoichiometry N: 0.81
